In article PMC7618002:
One block for each substance: values may come before it.

Columns and labels:
Assay in all cases: SEC; analytical SEC of the purified protein alone; oligomeric state in solution
[1] = target: WsmD (Streptomyces sp. CB02120-2)
[2] = target: WsmE (Streptomyces sp. CB02120-2)
[3] = target: WsmS (Streptomyces sp. CB02120-2)
[4] = target: WsmR KS6 (Streptomyces sp. CB02120-2)
LnmF = target: LnmF

Substance: WsmD (enzyme)
- stoichiometry N [1]: 2

Substance: WsmR KS6 (domain or fragment)
- stoichiometry N [4]: 2

Substance: LnmF (enzyme)
- stoichiometry N (LnmF): 3

Second part, the substance after the results:

- stoichiometry N [2]: 3
Substance: WsmE (enzyme)

- stoichiometry N [3]: 2
Substance: WsmS (enzyme)
